# B1: VTI1B (parent)
# chain: ANETLAEMEEELRYAPLSFRNPMM
# B2: CLCN6 (parent)
# chain: FQSISLRKIQFNFPYFRSDRDKRD
# Variants of: B1
# Experiment: protein stability index of a GFP-peptide fusion (GPS, HEK-293T) (PSI 1-6); higher = more stable
# Settings: c terminus: a fixed tail appended
# 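Note: lentivirally expressed fusions sorted by FACS into six bins by GFP to DsRed ratio, PSI derived from sequencing read proportions per bin multiplied by bin number.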
row,Variant,protein stability index
1,ANETLAEMEEELTYAPLSFRNPMM [R13T],1.42
2,ANETLAEMEEELYYAPLSFRNPMM [R13Y],1.64
3,ANETLAEMEEELKYAPLSFRNPMM [R13K],1.46
4,ANETLAEMEEELSYAPLSFRNPMM [R13S],2.25
5,ANETLAEMEEELFYAPLSFRNPMM [R13F],2.01
6,ANETLAEMEEEWRYAPLSFRNPMM [L12W],2.19
7,ANETLAEMEEEPRYAPLSFRNPMM [L12P],2.95
8,ANETLAEMEEENRYAPLSFRNPMM [L12N],4.82
9,ANETLAEMEEEYRYAPLSFRNPMM [L12Y],4.21
10,ANETLALMEEELRYAPLSFRNPMM [E7L],2.5
11,ANETLAAMEEELRYAPLSFRNPMM [E7A],2.85
12,ANETLAMMEEELRYAPLSFRNPMM [E7M],2.21
13,ANETLASMEEELRYAPLSFRNPMM [E7S],2.84
14,ANETLAGMEEELRYAPLSFRNPMM [E7G],1.9
15,ANETLAEMEEELRYAPLSFCNPMM [R20C],2.35
16,ANETLAEMEEELRYAPLSFTNPMM [R20T],2.42
17,ANETLAEMEEELRCAPLSFRNPMM [Y14C],1.98
18,ANETLAEMEEELRQAPLSFRNPMM [Y14Q],1.67
19,ANETLAEMEEELRHAPLSFRNPMM [Y14H],1.7
20,ANETLAEMEEELRYAPCSFRNPMM [L17C],3.58
21,ANETLAEMEEELRYAPNSFRNPMM [L17N],4.16
22,ANETLAEMEEELRYADLSFRNPMM [P16D],3.56
23,ANETLAEMEEELRYALLSFRNPMM [P16L],1.88
24,ANETLAEMEEELRYAFLSFRNPMM [P16F],2.17
25,ANETLAEMEEELRYAYLSFRNPMM [P16Y],2.36

row,Variant,protein stability index
1,ANETLAEMEEELRYAMLSFRNPMM [P16M],1.77
2,ANETLAEMEEELRYAPLSPRNPMM [F19P],4.87
3,ANETLAEMEEELRYAPLSCRNPMM [F19C],4.43
4,ANETLAEMEEELRYAPLSERNPMM [F19E],4.67
5,PNETLAEMEEELRYAPLSFRNPMM [A1P],2.37
6,SNETLAEMEEELRYAPLSFRNPMM [A1S],2.49
7,NNETLAEMEEELRYAPLSFRNPMM [A1N],2.27
8,ANETLAEMEEELRYAPLSFRNPMR [M24R],3.21
9,ANETLAEMEEELRYAPLSFRNPMF [M24F],2.83
10,ANETLAEMEEELRYAPLSFRRPMM [N21R],3.25
11,ANETLAEMEEELRYAPLSFRWPMM [N21W],2.21
12,ANETLAEMKEELRYAPLSFRNPMM [E9K],1.8
13,ANETLAEMSEELRYAPLSFRNPMM [E9S],2.78
14,ANETLAEMEEELRYAPLSFRNPNM [M23N],3.67
15,ANETLAEMEEELRYAPLSFRNPKM [M23K],3.07
16,ANETHAEMEEELRYAPLSFRNPMM [L5H],3.14
17,ANETEAEMEEELRYAPLSFRNPMM [L5E],3.32
18,ANETSAEMEEELRYAPLSFRNPMM [L5S],2.96
19,ANETLAEMEEELRYCPLSFRNPMM [A15C],1.64
20,ANETLAEMEEELRYYPLSFRNPMM [A15Y],2.52
21,ANETLAEMEEELRYIPLSFRNPMM [A15I],2.06
22,ANETLAEMEEELRYKPLSFRNPMM [A15K],3.09
23,ANETLAEMEEELRYWPLSFRNPMM [A15W],2.92
24,ANETLAEMEEELRYVPLSFRNPMM [A15V],3.98
25,ANEQLAEMEEELRYAPLSFRNPMM [T4Q],2.54

row,Variant,protein stability index
1,ANEVLAEMEEELRYAPLSFRNPMM [T4V],1.9
2,ANEYLAEMEEELRYAPLSFRNPMM [T4Y],1.23
3,ANETLAEMEEELRYAPLIFRNPMM [S18I],2.83
4,ANETLAEMEEELRYAPLWFRNPMM [S18W],3.98
5,ANETLAEMEEELRYAPLHFRNPMM [S18H],2.94
6,ANETLAEMERELRYAPLSFRNPMM [E10R],1.17
7,ANETLAEMESELRYAPLSFRNPMM [E10S],2.56
8,ANETLAEMEQELRYAPLSFRNPMM [E10Q],3.3
9,ANETLQEMEEELRYAPLSFRNPMM [A6Q],2.79
10,ANETLAEMEEKLRYAPLSFRNPMM [E11K],3.41
11,AYETLAEMEEELRYAPLSFRNPMM [N2Y],2.05
12,AGETLAEMEEELRYAPLSFRNPMM [N2G],2.01
13,ARETLAEMEEELRYAPLSFRNPMM [N2R],1.26
14,ANETLAEEEEELRYAPLSFRNPMM [M8E],3.1
15,ANETLAEIEEELRYAPLSFRNPMM [M8I],2.8
16,ANETLAENEEELRYAPLSFRNPMM [M8N],2.72
17,ANETLAEGEEELRYAPLSFRNPMM [M8G],3.19
18,ANETLAELEEELRYAPLSFRNPMM [M8L],2.3
19,ANETLAEMEEELRYAPLSFRNGMM [P22G],3.58
20,ANETLAEMEEELRYAPLSFRNLMM [P22L],3.34
21,ANETLAEMEEELRYAPLSFRNKMM [P22K],3.43
22,ANLTLAEMEEELRYAPLSFRNPMM [E3L],1.38
23,ANGTLAEMEEELRYAPLSFRNPMM [E3G],2.51
24,ANMTLAEMEEELRYAPLSFRNPMM [E3M],2.1
25,ANATLAEMEEELRYAPLSFRNPMM [E3A],2.18

# Variants of: B2
# Experiment: as above
# Settings: c terminus: a fixed tail appended
row,Variant,protein stability index
1,FQSISLRKEQFNFPYFRSDRDKRD [I9E],1.98
2,FQSISLRKDQFNFPYFRSDRDKRD [I9D],1.72
3,FQSISLRKGQFNFPYFRSDRDKRD [I9G],1.44
4,FQSISLRKCQFNFPYFRSDRDKRD [I9C],1.98
5,FQEISLRKIQFNFPYFRSDRDKRD [S3E],2.73
6,FQQISLRKIQFNFPYFRSDRDKRD [S3Q],1.66
7,FQPISLRKIQFNFPYFRSDRDKRD [S3P],2.29
8,FQLISLRKIQFNFPYFRSDRDKRD [S3L],1.08
9,FQFISLRKIQFNFPYFRSDRDKRD [S3F],2.58
10,FQDISLRKIQFNFPYFRSDRDKRD [S3D],2.19
11,FQIISLRKIQFNFPYFRSDRDKRD [S3I],1.74
12,FQGISLRKIQFNFPYFRSDRDKRD [S3G],1.89
13,FQAISLRKIQFNFPYFRSDRDKRD [S3A],1.4
14,FQHISLRKIQFNFPYFRSDRDKRD [S3H],1.46
15,FQRISLRKIQFNFPYFRSDRDKRD [S3R],1.38
16,FQNISLRKIQFNFPYFRSDRDKRD [S3N],1.82
17,FQTISLRKIQFNFPYFRSDRDKRD [S3T],1.79
18,FQWISLRKIQFNFPYFRSDRDKRD [S3W],2.4
19,FQSIILRKIQFNFPYFRSDRDKRD [S5I],1.4

# Source: the supplement of paper PMC10567573
